Experiment [1] has as its target T1, MoFe protein^StrΔZ (Strep-tagged nitrogenase MoFe protein produced in a nifZ-deletion strain) (Azotobacter vinelandii, UniProt P07328 1-492; P07329 1-523).
T1 construct: nitrogenase MoFe protein α-subunit (NifD), Azotobacter vinelandii; Strep-encoding tag incorporated into the N-terminal coding region; nitrogenase MoFe protein β-subunit (NifK), Azotobacter vinelandii; A mixed population: αβ-units hold either an immature P-cluster without FeMo-cofactor or a mature P-cluster with FeMo-cofactor; also called MoFe^StrΔZ; α2β2 heterotetramer; source: A. vinelandii …
T1 sequence (looked up) 1: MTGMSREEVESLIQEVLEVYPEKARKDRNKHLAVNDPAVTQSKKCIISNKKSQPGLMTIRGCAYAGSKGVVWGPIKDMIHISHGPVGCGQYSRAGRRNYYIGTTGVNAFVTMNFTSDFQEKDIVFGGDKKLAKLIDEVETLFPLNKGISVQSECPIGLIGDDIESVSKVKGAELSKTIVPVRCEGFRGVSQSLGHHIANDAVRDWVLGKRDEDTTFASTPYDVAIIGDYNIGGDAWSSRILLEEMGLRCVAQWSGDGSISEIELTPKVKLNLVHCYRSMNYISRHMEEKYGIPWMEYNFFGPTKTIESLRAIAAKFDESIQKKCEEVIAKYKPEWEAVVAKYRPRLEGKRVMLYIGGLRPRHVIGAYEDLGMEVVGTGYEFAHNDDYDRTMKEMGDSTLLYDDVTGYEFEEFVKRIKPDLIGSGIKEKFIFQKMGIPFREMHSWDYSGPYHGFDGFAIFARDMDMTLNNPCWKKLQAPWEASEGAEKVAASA
T1 sequence (looked up) 2: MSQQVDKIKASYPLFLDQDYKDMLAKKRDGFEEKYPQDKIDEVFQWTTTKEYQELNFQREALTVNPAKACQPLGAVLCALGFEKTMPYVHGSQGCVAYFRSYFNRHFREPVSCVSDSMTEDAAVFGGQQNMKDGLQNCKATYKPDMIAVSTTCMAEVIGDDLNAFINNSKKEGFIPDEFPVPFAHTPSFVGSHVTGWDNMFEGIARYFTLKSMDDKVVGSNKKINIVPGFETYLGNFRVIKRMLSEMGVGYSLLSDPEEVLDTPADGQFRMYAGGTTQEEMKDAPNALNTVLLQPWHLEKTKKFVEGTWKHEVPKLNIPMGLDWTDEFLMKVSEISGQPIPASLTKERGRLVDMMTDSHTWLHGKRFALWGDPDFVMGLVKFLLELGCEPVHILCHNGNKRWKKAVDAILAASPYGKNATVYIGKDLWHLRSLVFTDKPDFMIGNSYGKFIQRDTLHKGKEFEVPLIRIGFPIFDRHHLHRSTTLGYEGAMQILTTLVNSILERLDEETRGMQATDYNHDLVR
The experiment can be described thus: affinity purification with mass spectrometry; MoFe protein^StrΔZ isolated on Strep-Tactin (STAC) from cell extract, then Q-Sepharose anion exchange (200-500 mM NaCl gradient); fractions on SDS-PAGE, Coomassie, densitometry; bands identified by MALDI; also after incubating the extract 0-240 min with 36 mM Na2S2O4 at 30 °C (NifW slowly dissociates). Conditions: partners not purified.

The target of experiment [2] is T2, MoFe protein^HisΔZ (His-tagged nitrogenase MoFe protein produced in a nifZ-deletion strain) (Azotobacter vinelandii, UniProt P07328 1-492; P07329 1-523).
T2 construct: nitrogenase MoFe protein α-subunit (NifD), Azotobacter vinelandii; polyhistidine-encoding tag incorporated into the N-terminal coding region; nitrogenase MoFe protein β-subunit (NifK), Azotobacter vinelandii; A mixed population: αβ-units hold either an immature P-cluster without FeMo-cofactor or a mature P-cluster with FeMo-cofactor; also called MoFe^His protein; α2β2 heterotetramer; source: A. …
T2 sequence (looked up) 1: T1 sequence (looked up) 1
T2 sequence (looked up) 2: T1 sequence (looked up) 2
Nature of the experiment: affinity purification with mass spectrometry; MoFe protein^HisΔZ isolated by IMAC from extract of cells derepressed 4 h, then Q-Sepharose anion exchange (200-500 mM NaCl gradient); fractions on SDS-PAGE, Coomassie, densitometry; bands identified by MALDI. The conditions noted are these: partners not purified.

Where “and” joins values, the source holds several entries; their conditions need not be identical. Identical values can stand only once.

We go through 1 molecule from PMC6484116, “The NifZ accessory protein has an equivalent function in maturation of both nitrogenase MoFe protein P-clusters” (The Journal of Biological Chemistry, 2019).

B1: NifW (accessory protein, endogenous) (natural protein, UniProt P14888 1-115, looked up)
chain: MTVQPFSPDSDLTLDEAMDELVSAEDFLEFFGVPFDQDVVHVNRLHIMQRYHDYLSKAGDLDEHDDQARYAVFQKLLARAYLDFVESDALTEKVFKVFRMHEPQKTFVSIDQLLS
notes: NifW, Azotobacter vinelandii; also called NifW assembly factor; source: endogenous, A. vinelandii DJ1182 or DJ2111 cell extract; co-purified with MoFe protein
Turning to B1, the “stoichiometry N” value in experiment [1] was ~1 NifW per α2β2 heterotetramer and ~2 NifW per α2β2 heterotetramer; in experiment [2] it was ~1 NifW per α2β2 heterotetramer and 2 NifW per α2β2 heterotetramer.
